Publication PMC6817910, “Aspartate/asparagine-β-hydroxylase crystal structures reveal an unexpected epidermal growth factor-like domain substrate disulfide pattern” (Nature Communications, 2019)
Changes are numbered by the printed parent chain. Bridge positions count the residues as written; N and C are the ends. Ends that are not written are not given here.

T1: N-terminally His6-tagged AspH_(315–758) (human aspartate/asparagine-β-hydroxylase, TPR and oxygenase domains) (human, UniProt Q12797 315-758)
T1 construct: human aspartate/asparagine-β-hydroxylase (AspH), residues 315-758: TPR domain (aa 330-555), hinge-loop region (aa 556-577) and 2OG oxygenase domain; pET-28a(+) construct; crystallised with Mn(II) in place of Fe(II) and N-oxalylglycine (NOG); also called AspH-TPR-Ox; His6-AspH_(315–758); not shown: His6, N-terminal, kept
T1 sequence (looked up): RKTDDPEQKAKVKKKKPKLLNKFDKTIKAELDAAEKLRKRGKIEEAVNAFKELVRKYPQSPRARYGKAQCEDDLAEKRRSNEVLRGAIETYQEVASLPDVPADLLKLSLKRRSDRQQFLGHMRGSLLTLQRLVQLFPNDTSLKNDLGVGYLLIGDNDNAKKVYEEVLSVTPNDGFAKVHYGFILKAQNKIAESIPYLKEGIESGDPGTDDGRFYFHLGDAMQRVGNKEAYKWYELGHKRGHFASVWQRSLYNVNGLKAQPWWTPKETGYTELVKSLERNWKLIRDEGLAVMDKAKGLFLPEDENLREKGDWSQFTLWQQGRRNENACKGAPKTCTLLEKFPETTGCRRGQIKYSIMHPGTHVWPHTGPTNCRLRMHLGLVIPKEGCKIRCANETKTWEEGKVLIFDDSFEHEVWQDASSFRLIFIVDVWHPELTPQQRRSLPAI

B1: hFX EGF1_(39mer), N-terminal EGF-like domain of human coagulation factor X (aa 86–124) (peptide, UniProt P00742 86-124, looked up)
peptide: DGDQCETSPCQNQGKCKDGLGEYTCTCLEGFEGKNCELF
modifications: disulfide 27-36; not fully specified (C-terminus); also: mixture of canonical (Cys1–3, 2–4) and non-canonical (Cys1–2, 3–4) isomers, crystal: Cys101–Cys110
notes: human coagulation factor X, first EGF-like domain, aa 86-124; The peptide batch is a mixture of disulfide isomers; also called NC_(39mer) peptide (the non-canonical disulfide isomer seen in the crystal); 39-residue fragment of hFX EGF1
B2: NC_(26mer), truncated 26mer hFX EGF1 substrate (aa 86–111) with the non-canonical disulfide arrangement (Cys1–2, 3–4) (peptide, UniProt P00742 86-111, looked up)
peptide: DGDQCETSPCQNQGKCKDGLGEYTCT
modifications: disulfide 5-10, 16-25
notes: human coagulation factor X, first EGF-like domain, aa 86-111, lacking the Cys5–6 disulfide-forming residues; also called NC_(26mer) peptide; source: synthetic peptide (GL Biochem (Shanghai) Ltd, orthogonal cysteine protection, single disulfide isomer)
B3: NC-4Ser_(39mer), hFX EGF1_(39mer) with cysteines 1, 2, 5 and 6 (aa 90, 95, 112 and 121) replaced by serines (peptide, UniProt P00742 86-124, looked up)
peptide: B1 peptide with C5S, C10S, C27S, C36S
modifications: disulfide 16-25
notes: human coagulation factor X, first EGF-like domain, aa 86-124, with Cys90, 95, 112 and 121 substituted for Ser; also called NC-Ser_(39mer); NC-4Ser_(39mer) peptide; source: synthetic peptide (GL Biochem (Shanghai) Ltd, single disulfide isomer)

Biological target: T1, N-terminally His6-tagged AspH_(315–758) …
Assay: crystal structure; N-terminally His6-tagged AspH_(315–758) (18 mg/mL in 50 mM HEPES, pH 7.5) mixed with 1 mM MnCl2, 2 mM N-oxalylglycine and the AspH-substrate; co-crystallised by vapour diffusion at 4 °C in sitting drops
Conditions: both partners purified

Binding result, binds:
B1, B2, B3
